Results from the RNAGym collection of RNA variant scans (doi:10.1021/acssynbio.7b00057).

B1: Pistol ribozyme (parent)
chain: GGGUCGUUGUUCCAUAAUCGCGUGGAUAUGGCACGCAAGUUUCUACCGGGCACCGUAAAUGUCCGACUGGAGCCGUUCGGGCGGCUAUAAACAGACCUCAGGCCCGAAGCGUGGCGGCACCUGCCGCCGGUGGUAAAAAAGAUCGGAAGAGCACACGUCU

Variants of: B1
Assay: aptazyme ON/OFF ratio, guanine; higher = stronger switching; co-transcriptional cleavage with and without guanine

| Variant | aptazyme ON/OFF ratio |
| --- | --- |
| U8G G9C U11G C12G C13A | 1.09 |
| U8G G9C U11G C12G C13G | 1.07 |
| U8G G9U U10C U11A C12U C13A | 1.08 |
| U8G G9U U10C U11A C12U C13U | 1.08 |
| U8G G9U U10C U11A C12U C13G | 1.11 |
| U8G G9U U10A U11G C13U | 1.04 |
| U8G G9U U10A U11G C13A | 1.09 |
| U8G G9U U10A U11G C13G | 1.03 |
| U8G G9C U11C C13U | 1.03 |
| U8G G9C U11C C13G | 1.04 |
| U8G G9C U11C C13A | 1.06 |
| U8G G9U U10A U11C | 1.01 |
| U8G G9U U10A U11A | 1.59 |
| U8G G9U U10A U11G | 1.16 |
| U8G G9U U10C U11A C13A | 1.06 |
| U8G G9U U10C U11A C13U | 1.12 |
| U8G G9U U10C U11A C13G | 1.04 |
| U8G G9U U10G U11C C12U C13A | 1.03 |
| U8G G9U U10G U11C C12U C13G | 1.03 |
| U8G G9U U10G U11C C12U C13U | 1.03 |
| U8G G9U U10A U11C C12U | 1.05 |
| U8G G9U U10A U11C C12A | 1.12 |
| U8G G9U U10A U11C C12G | 1.1 |
| U8G G9U U10A C12U | 1.11 |

| Variant | aptazyme ON/OFF ratio |
| --- | --- |
| U8G G9U U10A C12G | 1.15 |
| U8G G9U U10A C12A | 1.43 |
| U8G G9U U10G U11G C12G | 1.13 |
| U8G G9U U10G U11G C12U | 1.2 |
| U8G G9U U10G U11G C12A | 1.06 |
| U8G G9U U10C U11A | 1.27 |
| U8G G9U U10C U11G | 1.15 |
| U8G G9U U10C U11C | 1.05 |
| U8G G9U U10A U11A C12G C13G | 1.18 |
| U8G G9U U10A U11A C12G C13U | 1.22 |
| U8G G9U U10A U11A C12G C13A | 1.2 |
| U8G G9U U10A U11A C12U C13G | 1.11 |
| U8G G9U U10A U11A C12U C13A | 1.14 |
| U8G G9U U10A U11A C12U C13U | 1.15 |
| U8G G9C U11A C12G | 1.07 |
| U8G G9C U11A C12U | 1.05 |
| U8G G9C U11A C12A | 1.11 |
| U8G G9U U10G U11G C12A C13A | 1.07 |
| U8G G9U U10G U11G C12A C13U | 1.05 |
| U8G G9U U10G U11G C12A C13G | 1.08 |
| U8G G9U U10G U11A C12U C13A | 1.05 |
| U8G G9U U10G U11A C12U C13G | 1.05 |
| U8G G9U U10G U11A C12U C13U | 1.06 |
| U8G G9C U11A C12G C13G | 1.1 |

| Variant | aptazyme ON/OFF ratio |
| --- | --- |
| U8G G9C U11A C12G C13U | 1.07 |
| U8G G9C U11A C12G C13A | 1.08 |
| U8G G9C U11C C12U C13G | 1.03 |
| U8G G9C U11C C12U C13U | 1.04 |
| U8G G9C U11C C12U C13A | 1.03 |
| U8G G9U U10G C12U C13A | 1.03 |
| U8G G9U U10G C12U C13U | 1.06 |
| U8G G9U U10G C12U C13G | 1.02 |
| U8G G9U U10C C12A | 1.19 |
| U8G G9U U10C C12U | 1.09 |
| U8G G9U U10C C12G | 1.41 |
| U8G G9U U10G C12G C13U | 1.02 |
| U8G G9U U10G C12G C13G | 1.05 |
| U8G G9U U10G C12G C13A | 1.02 |
| U8G G9U U10A U11C C12A C13G | 1.1 |
| U8G G9U U10A U11C C12A C13A | 1.1 |
| U8G G9U U10A U11C C12A C13U | 1.16 |
| U8G G9C U10G U11C C13A | 1.05 |
| U8G G9C U10G U11C C13G | 1.02 |
| U8G G9C U10G U11C C13U | 1.04 |
| U8G G9U U10G U11G C12G C13U | 1.09 |
| U8G G9U U10G U11G C12G C13G | 1.17 |
| U8G G9U U10G U11G C12G C13A | 1.07 |
| U8G G9U U10A U11G C12U | 1.24 |

| Variant | aptazyme ON/OFF ratio |
| --- | --- |
| U8G G9U U10A U11G C12A | 1.12 |
| U8G G9U U10A U11G C12G | 1.27 |
| U8G G9U U11A C12A C13A | 1.18 |
| U8G G9U U11A C12A C13U | 1.1 |
| U8G G9U U11A C12A C13G | 1.22 |
| U8G G9U U10A U11G C12A C13U | 1.12 |
| U8G G9U U10A U11G C12A C13G | 1.06 |
| U8G G9U U10A U11G C12A C13A | 1.05 |
| U8G G9U U11C C12A C13G | 1.08 |
| U8G G9U U11C C12A C13A | 1.09 |
| U8G G9U U11C C12A C13U | 1.11 |
| U8G G9U U10C U11G C12U C13A | 1.09 |
| U8G G9U U10C U11G C12U C13G | 1.09 |
| U8G G9U U10C U11G C12U C13U | 1.24 |
| U8G G9C U11C C12U | 1.04 |
| U8G G9C U11C C12A | 1.05 |
| U8G G9C U11C C12G | 1.04 |
| U8G U10A C12A C13A | 1.26 |
| U8G U10A C12A C13G | 1.05 |
| U8G U10A C12A C13U | 1.27 |
| U8G G9U U10G U11C C13U | 1.03 |
| U8G G9U U10G U11C C13G | 1.04 |
| U8G G9U U10G U11C C13A | 1.02 |
| U8G U10A C12G C13U | 1.28 |

| Variant | aptazyme ON/OFF ratio |
| --- | --- |
| U8G U10A C12G C13A | 1.16 |
| U8G U10A C12G C13G | 1.14 |
| U8G G9U U10G C13G | 1.03 |
| U8G G9U U10G C13U | 1.04 |
| U8G G9U U10G C13A | 1.04 |
| U8G U10A C12A | 1.48 |
| U8G U10A C12G | 1.23 |
| U8G G9U U10C U11C C12G C13G | 1.1 |
| U8G G9U U10C U11C C12G C13A | 1.07 |
| U8G G9U U10C U11C C12G C13U | 1.09 |
| U8G G9U U10A U11A C12G | 1.14 |
| U8G G9U U10A U11A C12U | 1.19 |
| U8G G9U U10A U11A C12A | 1.34 |
| U8G G9U U10G U11C C12G C13U | 1.02 |
| U8G G9U U10G U11C C12G C13A | 1.04 |
| U8G G9U U10G U11C C12G C13G | 1.03 |
| U8G G9U | 3.25 |
| U8G G9C U10G U11G C12G C13U | 1.3 |
| U8G G9C U10G U11G C12G C13A | 1.24 |
| U8G G9C U10G U11G C12G C13G | 1.1 |
| U8G G9U U10G U11G C13U | 1.02 |
| U8G G9U U10G U11G C13G | 1.03 |
| U8G G9U U10G U11G C13A | 1.04 |
| U8G G9C U10G U11G C12A C13G | 1.15 |

| Variant | aptazyme ON/OFF ratio |
| --- | --- |
| U8G G9C U10G U11G C12A C13A | 1.18 |
| U8G G9C U10G U11G C12A C13U | 1.3 |
| U8G G9C U11C C12G C13G | 1.05 |
| U8G G9C U11C C12G C13U | 1.04 |
| U8G G9C U11C C12G C13A | 1.03 |
| U8G G9U C12A C13G | 1.22 |
| U8G G9U C12A C13U | 1.07 |
| U8G G9U C12A C13A | 1.41 |
| U8G G9U U10C U11C C12A C13A | 1.05 |
| U8G G9U U10C U11C C12A C13U | 1.02 |
| U8G G9U U10C U11C C12A C13G | 1.1 |
| U8G G9C U11A C13A | 1.04 |
| U8G G9C U11A C13G | 1.03 |
| U8G G9C U11A C13U | 1.05 |
| U8G G9U U11C C12G C13U | 1.13 |
| U8G G9U U11C C12G C13G | 1.06 |
| U8G G9U U11C C12G C13A | 1.04 |
| U8G G9U U10C U11G C12G C13G | 1.14 |
| U8G G9U U10C U11G C12G C13A | 1.15 |
| U8G G9U U10C U11G C12G C13U | 1.08 |
| U8G G9U U10C U11G C13U | 1.03 |
| U8G G9U U10C U11G C13G | 1.03 |
| U8G G9U U10C U11G C13A | 1.04 |
| U8G G9U U10A C12G C13U | 1.23 |

| Variant | aptazyme ON/OFF ratio |
| --- | --- |
| U8G G9U U10A C12G C13G | 1.12 |
| U8G G9U U10A C12G C13A | 1.2 |
| U8G G9U U10A U11G C12G C13A | 1.05 |
| U8G G9U U10A U11G C12G C13G | 1.15 |
| U8G G9U U10A U11G C12G C13U | 1.37 |
| U8G G9U U10C U11A C12A C13G | 1.08 |
| U8G G9U U10C U11A C12A C13A | 1.07 |
| U8G G9U U10C U11A C12A C13U | 1.09 |
| U8G G9U U11C C12G | 1.12 |
| U8G G9U U11C C12U | 1.04 |
| U8G G9U U11C C12A | 1.12 |
| U8G G9C U11G C12U | 1.22 |
| U8G G9C U11G C12A | 1.11 |
| U8G G9C U11G C12G | 1.15 |
| U8G G9U U10A U11A C12A C13A | 1.15 |
| U8G G9U U10A U11A C12A C13U | 1.22 |
| U8G G9U U10A U11A C12A C13G | 1.16 |
| U8G G9U U10C U11A C12G C13A | 1.08 |
| U8G G9U U10C U11A C12G C13G | 1.14 |
| U8G G9U U10C U11A C12G C13U | 1.16 |
| U8G G9U U10G C12A C13G | 1.04 |
| U8G G9U U10G C12A C13A | 1.03 |
| U8G G9U U10G C12A C13U | 1.05 |
